# B1: CR2-CD59 (protein)
# chain: ISCGSPPPILNGRISYYSTPIAVGTVIRYSCSGTFRLIGEKSLLCITKDKVDGTWDKPAPKCEYFNKYSSCPEPIVPGGYKIRGSTPYRHGDSVTFACKTNFSMNGNKSVWCQANNMWGPTRLPTCVSVFPLECPALPMIHNGHHTSENVGSIAPGLSVTYSCESGYLLVGEKIINCLSSGKWSAVPPTCEEARCKSLGRFPNGKVKEPPILRVGVTANFFCDEGYRLQGPPSSRCVIAGQGVAWTKMPVCSGGGGSLQCYNCPNPTADCKTAVNCSSDFDACLITKAGLQVYNKCWKFEHCNFNDVTTRLRENELTYYCCKKDLCNFNEQLEN
# B2: CR2-DAF (protein)
# chain: ISCGSPPPILNGRISYYSTPIAVGTVIRYSCSGTFRLIGEKSLLCITKDKVDGTWDKPAPKCEYFNKYSSCPEPIVPGGYKIRGSTPYRHGDSVTFACKTNFSMNGNKSVWCQANNMWGPTRLPTCVSVFPLECPALPMIHNGHHTSENVGSIAPGLSVTYSCESGYLLVGEKIINCLSSGKWSAVPPTCEEARCKSLGRFPNGKVKEPPILRVGVTANFFCDEGYRLQGPPSSRCVIAGQGVAWTKMPVCGGGSGGGGSDCGLPPDVPNAQPALEGRTSFPEDTVITYKCEESFVKIPGEKDSVICLKGSQWSDIEEFCNRSCEVPTRLNSASLKQPYITQNYFPVGTVVEYECRPGYRREPSLSPKLTCLQNLKWSTAVEFCKKKSCPNPGEIRNGQIDVPGGILFGATISFSCNTGYKLFGSTSSFCLISGSSVQWSDPLPECREIYCPAPPQIDNGIIQGERDHYGYRQSVTYACNKGFTMIGEHSIYCTV
# Target: C3 ligand for CR2 deposited on CHO cells (human) (UniProt P01024)
# Assay: cell-based or functional assay
row,Binder,50% inhibition of CHO cell lysis [nM]
1,B1,102
2,B2,18
